Test: soluble on expression in E. coli; label from the status in PepcDB or PDB records

Row | Sequence | soluble on expression in E. coli
1 | MKLTWIKCMSKTERISDIDEPRLFEENGVEAHIAAFVMPLLKPLGFRLVRVKLLGLNGLTLQIMVERPDGSMTVEDCETVSRTVSPLLDVQNVIERKYHLEISSPGIDRPLVRKSDFFHWQGHIAKIETKIILEGRRKFRGTLTNITQDGFTLNTDKAAYGESMYISIPFDDIIDAHLVLTDELIRDALKKNKDLSQQFISEDNQKLSKQERNYKN | not soluble
2 | MKPEKRHATESMTMEALLDLLPKDAATDPTGRRLAELVTRIATKRVPVSSFSRIWNLGSLQARVTIGYVAYWLRSRFADSDEKQRLRNEAHLAAALRLFGTMGYLRGAVMKIGQLLANLPEVVPEEFAEVLSALHFEAPPMHFSLVRELFLDEFGREPEELFASFDRQAFAAASLGQVHRARLKSGEEVAVKIQYPGIARTIKADLRNLRLLLQPLCLTNDWQNTLDKLADIEQMLLMETDYEQEARFCREARLLFTTEDRVVVPRVFDDYSTKRVLTTEFLTGCHLDQFLAGNPSQAERDHFTTLLTVATMRIYYRLHWFCADPHPGNFIFMLDGRLGLIDFGCTRAMNGEEWRLICELEQAHQEEDAEQFDRVIARATLYDSPEAMGKEQLAVVRRNVLWNMEPWLKEGLFDFGDREFFMRGIDGLMELTRKRYTRGSPLYLWSTRFVLGGRAVCYQMRGRCEFQEIFRQESAWVCPEPPILEHHHHHH | not soluble
3 | YRATKLWNEVTTSFRAGMPLRKHRQHFKKYGNCFTAGEAVDWLYDLLRNNSNFGPEVTRQQTIQLLRKFLKNHVIEDIKGRWGSENVDDNNQLFRFPA | soluble
4 | MSLREYIKEGIKLAVTNIPEDVVSAIREALEREESKIAKYNLEMILKAIDISRKEGIPVCQDTGTPIFFVRTNGPINKIYDEIVKGVEIATREVPLRPNALHVLDGKVIGNVPEVHFEPGKETLISILMKGGGSENCTALFPLTPAEGLEGVKNKVIEHVQSCGGKPCPPIIVGIGIASPAEKAIILAKKALLRRISERHPNEKLAKFERELLEEINSLGIGPMGLGGRTTALDVKVEVETRHPASYIVGVVIQCWAHRRAFIKVSEGGVKIWQEGGSHHHHHH | soluble
5 | MGHDIDQVAPLLREPANFQLRTNCDPHEDNFGLRAHGPLVRIVGESSTQLGRDFVWQAHGYEVVRRILGDHEHFTTRPQFTQSKSGAHVEAQFVGQISTYDPPEHTRLRKMLTPEFTVRRIRRMEPAIQSLIDDRLDLLEAEGPSADLQGLFADPVGAHALCELLGIPRDDQREFVRRIRRNADLSRGLKARAADSAAFNRYLDNLLARQRADPDDGLLGMIVRDHGDNVTDEELKGLCTALILGGVETVAGMIGFGVLALLDNPGQIELLFESPEKAERVVNELVRYLSPVQAPNPRLAIKDVVIDGQLIKAGDYVLCSILMANRDEALTPDPDVLDANRAAVSDVGFGHGIHYCVGAALARSMLRMAYQTLWRRFPGLRLAVPIEEVKYRSAFVDCPDQVPVTW | soluble
6 | MAHHHHHHMHRRTLRRLQQVVQNPPVGSANIPSPYATEGGHVPIWSIVNGFVQKRNWVFRNPEWCDLCKEPVALWVNHHGRKDHALMDMHYTQMVEFPRRWNPEEILAVFLEELGLSVEAYQKYYGGYEREHRNELYAMLVALEEAKMLHFGEPRDTYLYRMQGGLRGMDHQGALVLHRYILGPFMRIYPNGHIQDYSNLVDFVTCAYNMETVYDLCGFYTLDKVALKADYKPSSPAALGLGGIAVHSSATHGFAQQAMEKPQQSPQPQPQRHMTVGTGGRSAADMEEEAFSRKAVFVRQLLGQLRWLTLPDEEHPAGHMFPQHLMFLGEICLKSLVAEIVAARLCEYMVRVEPVWRDHGYERVKLDVDKIMRKENDILPEPVKFFYRPMSPKMDDLYSTNRGNLDEALEKAVVAPVSGKGA | soluble
7 | MINRNEEQNFNKLSEVINEYNKLQISQQIDYDKFYLYSIITHSTAIEGSTITEIENQLLFDEGISANKPIHEQLMNLDLKAAYEKSFELAKQHTQITPEILCELSVLVMKNTGTVYNTIGGTFSSAKGELRLVNVSAGRGGKSYMAWQKLPQKLEEFCSWLNSERKSIAEKDIEAQYAFSFLAHYKLVHIHPWADGNGRMSRLLMNVIQYEAGLVPAIIKKENRAEYIQSLASSQDKDDPAEFLHFMFSHHIRNLSEQIEEYKNSLEMSGS | not soluble
8 | MSLIYTGRPMLGTERIRGLTIKIFLPLMELLGRVMGVGREEVRHSFIKVNNELVRSRGGRYTPDELLILVPHCLQSSRCEIRLTYDMNHCKRCGKCPIRDLLALRDRYGVSLAIATGGTIARRIVVQTRPKLIIAVACERDLASGIQDTHPIPVYGVLNERPNGPCLDTLVPMQRLEAALRHFLRDVPVSAGGAPDESRRGRDAAAAFGKAQGPECRVTQGSSQRRGSDGEGHHHHHH | not soluble
9 | MGSDKIHHHHHHMTSPNTTQGAADPIQSYLNQGLRNYWYPVAPSWQVGDAPVGITRLGDQIVLWRDKEGKVRALEDRCPHRGARLSLGWNLGGSVACWYHGIEVDGGGTVTKVPAVSNCPLEGQKCVKSYPVEEHAGAIFLWFGDDAHKEPAPLVLPEELVGEEYASFLCMSHWKCNYQYAIDNVMDPMHGAYLHATSHSMAEGDKQADMRVRKTETGLMFEKIGQRDVNFDWVELGETGCLWMRLAIPYKKKFGPGGNFGIIGFAVPVDEDNCQVYFWRTRKVQGWQRDAWRFMYRNRLEGLHWAVLEQDRYVLESMAPNARDHEFLYQHDVGMTRVRRMLRQRAQQHFADLDAHRAQAVSATPAAAEAGHSHA | not soluble
10 | MKYFQEADIAVTVCDKTGKIIDMNEQSRQVNLKPGQELIGSNVLDCHPEPARSMLEEMMRQERKHVYTIEKNGRKKLIYQIPWYEKGEYMGFLELSMVIPFEMEHKIRTPKPAND | not soluble
11 | MQNTIIQKAVNKDLNSILEITKDALNAMKTMNFHQWDENYPNEIVFQEDIQAQELYVFKENDEILGFICINEKFKPEFYKQVIFNKNYDDKAFYLHRLAVKQNAKGKGVAQKLLNFCENFALENHKASLRADTHSKNFPMNSLFKKLDFNFCGNFDIPNYQDPFLAYEKILNQKAF | not soluble
12 | MIKWPWKAQEITQNEDWPWDDALAIPLLVNLTAQEQARLIALAERFLQQKRLVALQGFELDSLKSARIALIFCLPILELGIEWLDGFHEVLIYPAPFVVDDEWEDDIGLVHSQRVVQSGQSWQQGPIILNWLDIQDSFDASGFNLIIHEVAHKLDMRNGDRASGIPFIPLRDVAGWEHDLHAAMNNIQDEIDLVGESAASIDAYAATDPAECFAVLSEYFFSAPELFAPRFPALWQRFCQFYRQDPSQRLRVSAAEGDYGEESEH | not soluble
13 | MGSDKIHHHHHHMKGVLYISFLVCILLGCSDSDGLPDGGKDKTARTELEIVSASIVEGNTQTRADVPFTPGSSIALFCHGQAAETSYTPVNNRKYTLNSGDSKWTAESEATTIYLGSEKADVCGYYPYVEGTVGTADTLYNVRTTIPMDTQDYDPSKELYYVANQEVDAKRYFVEMHFKHAYSRLVLNIGVEDAYPATCSINSVALANDSLFRKAVIDITSGTVGIHPDDTEKQFRGGYNITKDLPYLLDSPDKKYQADLLMIPTKLLPDPFEPTKGLSVIVNVSGFPATVIIPIDDLSDFESGKKYVVSLKLRGIAIKSVTVTTTDWDEKRLNEGVDYEPLPQS | not soluble
14 | SNAMITKAIYPGTFDPITNGHLDLVTRASAMFSHVILAIADSSSKKPMFTLDERVALAKKVTAPLKNVEVLGFSELMAEFAKKHNANILVRGLRSVSDFEYEWQLANMNRHLMPKLESVFLIPSEKWSFISSSLVKEVARHGGDITPFLPKPVTKALLAKLA | soluble
15 | MSLSASPELADKKGIRACPFDEPKASDEINTGFMKIFTGGDTITARALYKEPIYFKPQFKPFLLCNELPTIKSDDDGTWRRLKVIPFLSKFIKHSEATKKMKKEGLPKNHFWADTSLSEKLPDWKQGFMCLLLKYFRKYRKHGLIHPKLVTQHTVEYRKKCDVFQDFIGDYLVRVDNTKKGISVMDLYQNMREWYKSNYTGKCPNAKDLRNYVQHRMPTYNKNAEGHHHHHH | not soluble
16 | MKLTIIRLQHFSDQDRIDLGKIWPSQDLSTLTLDENHRLYAAHFNERLLGAVRVTLRGVEGELSDLCVREVTRRRGVGQYLVEETLRDNPAINSWRVADHGVEDRGVMAAFMQALGFSAQQ | not soluble
17 | MGNSCQNGTYGNNYQNSNRFQNDRFASRYVDGNDTEDCYSGSSRASLAGALRQGLNLKSPVLGYKTPNVRELYTLGRELGQGQFGKTYLCTEISTGCQYACKTILKSNLRCVSDIEDVRREIQIMHHLSGQKNIVTIKDTYEDEQAVHIVMELCAGGELFSKIQKRGHYSERKAAELIKIIVGIIETCHSHGVMHRDLKPENFLLLDADDEFSVKAIDFGLSVFFRPGQVFREVVGSPYYIAPEVLEKRYGPEADIWTAGVILYVLLTGVPPFWADTQSGIYEKVLDGRIDFKSNRWPRISDSAKDLIKKMLCPYPSERLKAHEVLKHPWICDNGVATNRALDPSVLPRLKQFSAMNRLKKLSLQIIAERLSEEEIVGLREMFKAMDTKNRSVVTFGELKGLKRYSSVFKDTEINDLMEAADDTTSTINWEEFIAAAVSLNKIEREKHLMAAFTYFDKDGSGFITVDKLQKACMERNMEDTFLEEMILEVDQNNDGQIDYAEFVTMMQSNNFGLGWQTVESSLNVALREAPQVY | not soluble
18 | MVSAMSNIWSNWSGFVTAEPRLIASPADAGELGDLVRTAPGPVRVVGAGHSFTPLVKSQGTILSLEKLEGLVSHDPQKHQARVKAGTRLGPLMHILQGIGQGLPNMGDIDRQAIGGALGTATHGSGPTLGAYHTQLETVQIVDGLGKVRDFTRAGDQDMIHAIGVALGAFGVLSEVTLNNIATYRLRRRKWVLPIGDMLRDFEKMMTAHRSAEFYYIPFSGYAQFIASDFSTEATTTRPTDDDEGSLRTLRRLRTGLAWLPSLRRRLILGAVAKVPSEDYVQDWLNVYASDRQTKFNEMEYHLPFEEGPKALAEIIELTEKRFPEVYFPMEVRSVAPDKFWLSPFYNRPTCSIAIHHDAASDPLPFMQAAEPIFRRYGGRPHWGKMHSLKAADFKKLYPRWDDAMAVRRDIDPQNRFVSPYMAGLFGIEPSPFGIDPLEHHHHHH | not soluble
19 | MAISLQKGQRISLSKEAPGLSKMMCGLGWDVAKRSGGGFFSNFGGGGQNYDLDASVICLDANGKLTAKENIIYFGNLQHLSGAITHTGDNLTGAGDGDDEVIIVDLPRIPAQIVKLVFVVNIYDCIARKQDFSQIENAFVRLVNAANNKELARYNLSGKEYLGMTGMVLAEVYRHNDDWKLAAIGNGVNVNGLGELAGSYS | not soluble
20 | MSRQDPRTIEFLESVGKGEIPPSLVQQYPGKEIDFKVNRHHEEYVAPKMKPFGGSGVRLGNVVPTVLGQSSSSATTAGTSSATTDHNPDHTAENEAKQLEDAKKELSTNMNEPTTNIQIRLPNNQRLVGIFNHSHTLEAVRTFICTARPDMIYAPFQMMAAYPPKPFEDESQTLKDANVLNSVVAVKILPTTN | not soluble
21 | MGSDKIHHHHHHMTYQAREAGLKEVEQLVHEQAVYQYLQENNEGGQMDKDQMLFLHEAISGSDLTDAAAYRVVSATLYMILAHDTHEKIDEPGDVVKLTRKEQELTVLAGDFYSALYYRTLAELEMIPLLRALQSGVQETNTAKTNIYQLHVATDEEYLSQLTLTNAAIFAKFAKYFMKDETFIALGCQFFLLKRLQTELATYKEIGASRLKRAFDHGYFAKEAVSNFESWLVAIIRDVKSEVERLKTEAEPLSNLLEKRIIEVIND | not soluble

Source: the DeepSol protein solubility set
